Experimental data as given in PMC3184995.

What was measured:
[1] = target: Ac-SLP-1, saposin-like protein from the dog hookworm Ancylostoma caninum (Ancylostoma caninum); experiment: native gel or EMSA; native gel of purified Ac-SLP-1; migrates at 20 kDa under native conditions, at smaller sizes with SDS
[2] = target: Ac-SLP-1, saposin-like protein from the dog hookworm Ancylostoma caninum (Ancylostoma caninum); experiment: SEC-MALS; Superose-12 column; samples injected at 5–10 mg mL^−1; 100 mM NaCl, 20 mM HEPES (pH 7.5) or 100 mM Na-citrate (pH 5.0); same result at both pH

In the case of “Ac-SLP-1, saposin-like protein from the dog hookworm Ancylostoma caninum (natural protein)”, the stoichiometry N [1] is reported as 2 and the stoichiometry N [2] is reported as 2.
